Experimental data reported in patent US20140178353A1.

Biological target: Lon protease of E. coli (endogenous) (E. coli) (UniProt P0A9M0)
Assay: cell-based or functional assay

Chain of UniProt P0A9M0 (P0A9M0 2-784 limits assumed): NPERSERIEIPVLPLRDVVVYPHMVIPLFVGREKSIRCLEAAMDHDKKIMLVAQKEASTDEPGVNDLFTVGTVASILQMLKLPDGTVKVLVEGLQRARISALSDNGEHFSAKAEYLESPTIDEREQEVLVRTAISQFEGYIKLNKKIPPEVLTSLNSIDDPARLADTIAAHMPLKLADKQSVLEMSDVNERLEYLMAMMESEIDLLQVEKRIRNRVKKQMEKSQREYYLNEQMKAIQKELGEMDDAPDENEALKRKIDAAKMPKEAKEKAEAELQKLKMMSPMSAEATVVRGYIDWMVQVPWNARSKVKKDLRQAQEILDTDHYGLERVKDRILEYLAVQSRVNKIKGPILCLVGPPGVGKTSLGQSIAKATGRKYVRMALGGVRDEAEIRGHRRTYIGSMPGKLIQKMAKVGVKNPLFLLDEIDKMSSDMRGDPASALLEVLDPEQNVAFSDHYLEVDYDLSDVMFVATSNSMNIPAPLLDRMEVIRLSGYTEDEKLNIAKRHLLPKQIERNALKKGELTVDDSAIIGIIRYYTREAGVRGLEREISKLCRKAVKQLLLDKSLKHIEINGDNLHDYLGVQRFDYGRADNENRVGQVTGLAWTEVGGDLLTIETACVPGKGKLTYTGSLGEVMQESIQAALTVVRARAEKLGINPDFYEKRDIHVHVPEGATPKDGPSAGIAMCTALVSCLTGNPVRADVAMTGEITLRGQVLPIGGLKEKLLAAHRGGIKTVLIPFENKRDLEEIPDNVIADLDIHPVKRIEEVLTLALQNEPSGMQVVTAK

T7 phage gene product (Gp) 4.5 expressed in E. coli from a plasmid (peptide)
fold decrease in persistence: fraction of surviving E. coli cells following 5 hr exposure to ampicillin: 5 fold
